From the supplement of paper PMC10567573

B1: P2RY14 (parent)
chain: KLLSVIVWMLMLLLAVPNIILTNQ
B2: ANKRD40 (parent)
chain: YQELLRVCCCELGVNPDQVEKIRK

Variants of: B1
Experiment: protein stability index of a GFP-peptide fusion (GPS, HEK-293T) (PSI 1-6); higher = more stable
Details: c terminus: a fixed tail appended
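Note: lentivirally expressed fusions sorted by FACS into six bins by GFP to DsRed ratio, PSI derived from sequencing read proportions per bin multiplied by bin number.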

Variant | protein stability index
K1P | 2.13
K1Q | 4.07
K1I | 2.53
K1L | 3.3
K1Y | 3.13
K1D | 1.48
K1R | 2.35
K1G | 2.55
K1F | 3.58
K1W | 1.35
K1H | 4.35
L2C | 3.88
L2G | 2.21
L2I | 3.46
L2F | 2.29
L2D | 2.67

Variants of: B2
Experiment: as above
Details: c terminus: a fixed tail appended

Variant | protein stability index
I22Y | 2.57
I22W | 1.54
I22L | 1.93
I22D | 2.25
I22Q | 2.99
I22S | 2.06
I22A | 2.02
I22G | 2
I22V | 1.41
I22C | 2.13
I22H | 2.69
I22P | 1.18
I22M | 1.63
I22N | 3.16
I22E | 2.14
I22R | 1.88
I22K | 2.43
I22F | 2.44
K24F | 3.37
K24V | 1.61
K24M | 1.66
K24S | 1.66
K24G | 2.46
K24L | 2.07
K24E | 1.62

Variant | protein stability index
K24T | 2
K24P | 1.35
K24I | 1.6
K24Q | 2.12
K24W | 1.27
K24R | 1.6
K24H | 1.59
K24D | 2.13
K24A | 1.36
K24C | 1
K24N | 1.61
R6M | 1.73
R6L | 1.74
R6K | 1.91
R6D | 2.56
R6I | 1.49
R6E | 2.36
R6P | 2.02
R6F | 1.78
R6W | 1.58
R6H | 2.11
R6S | 2.03
R6G | 2.23
R6N | 2.26
R6Y | 2.18

Variant | protein stability index
R6T | 1.54
R6Q | 2.26
D17L | 1.59
D17F | 1.87
D17S | 2.4
D17C | 2.01
D17N | 2.11
D17R | 2.04
D17T | 2.42
D17Y | 2.01
D17G | 2.42
D17W | 2.12
D17K | 1.69
D17M | 1.56
D17Q | 2.94
D17I | 1.69
D17V | 2.73
V19L | 2.2
V19D | 1.66
V19K | 2.68
V19P | 2.19
V19W | 1.75
V19A | 1.79
V19E | 2.51
V19S | 1.66

Variant | protein stability index
V19Y | 2.26
V19N | 1.34
V19F | 2.19
V19M | 2.37
V19G | 1.64
V19R | 1.6
V19C | 2.1
V19H | 2.27
V19I | 2.25
V19Q | 2.29
C9K | 2.23
C9M | 1.81
C9I | 1.06
C9H | 2.15
C9Q | 2.27
C9G | 3.22
C9W | 2.23
C9N | 2.15
C9F | 3.38
C9V | 1.82
C9Y | 2.66
C9T | 2.23
C9E | 2.35
C9A | 2.61
C9S | 2.14

Variant | protein stability index
C9L | 1.55
C9D | 3.15
C9R | 2.31
C9P | 2.59
L12P | 2.55
L12S | 2.15
L12M | 2.05
L12I | 2.21
L12Y | 2.24
L12A | 1.78
L12G | 2.31
L12Q | 2.81
L12W | 1.65
L12R | 1.7
L12V | 1.64
L12E | 2.75
L12C | 2.03
L12K | 2.49
L12D | 2.64
L12F | 2.21
L12N | 2.86
L12H | 1.88
C8S | 3.33
C8P | 2.12
C8R | 2.21

Variant | protein stability index
C8H | 2.84
C8G | 2.8
C8K | 2.19
C8Y | 2.09
C8A | 3.16
C8M | 2.09
C8I | 2.38
C8E | 3.56
C8T | 3.53
C8L | 2.24
C8D | 3.81
C8N | 3.48
C8F | 1.44
C8Q | 3.52
C8W | 2.02
E20D | 2.94
E20C | 1.56
E20T | 1.47
E20M | 1.85
E20I | 3.43
E20R | 1.96
E20K | 1.96
E20L | 2.4
E20V | 1.99
E20A | 1.97

Variant | protein stability index
E20Q | 1.75
E20H | 1.26
E20N | 1.99
E20P | 1.66
E20S | 1.31
V7I | 2.03
V7K | 2.23
V7N | 1.96
V7L | 1.46
V7C | 2.1
V7E | 2.28
V7P | 2.5
V7H | 2.59
V7Y | 1.79
V7R | 1.41
V7D | 2.53
V7A | 2.15
V7F | 1.61
V7Q | 1.97
V7G | 1.48
G13W | 2.84
G13C | 1.63
G13K | 1.62
G13F | 1.55
G13N | 1.78

Variant | protein stability index
G13A | 2.08
G13H | 1.79
G13V | 1.71
G13R | 1.66
G13M | 2.01
G13T | 2.13
G13P | 2.06
G13Q | 1.57
G13E | 2.42
G13S | 3.16
G13L | 1.62
G13Y | 1.05
G13D | 2.19
G13I | 1.78
K21F | 2.97
K21N | 1.85
K21P | 1
K21A | 2.02
K21H | 1.49
K21W | 2.33
K21D | 1.66
K21L | 1.05
K21I | 1.81
K21C | 1.82
K21G | 1.82

Variant | protein stability index
K21R | 2.12
K21Y | 2.15
K21E | 2.4
K21V | 2.54
R23T | 2.08
R23S | 1.72
R23F | 1.55
R23K | 1.25
R23V | 2.9
R23Q | 1.4
R23Y | 1.8
R23M | 2.02
R23E | 1.6
R23W | 1.72
R23I | 1.8
R23N | 1.93
R23D | 2.04
R23P | 1.57
R23L | 1.98
R23H | 1.84
R23G | 1.56
R23A | 1.91
V14S | 2.32
V14M | 2.07
V14D | 2.88

Variant | protein stability index
V14L | 2.18
V14Y | 2.13
V14T | 1.99
V14C | 2.08
V14R | 1.5
V14A | 1.99
V14N | 1.85
V14H | 2.22
V14P | 2.02
V14Q | 1.72
V14F | 2.27
V14E | 2.72
V14I | 1.61
Q18N | 2.32
Q18S | 2.08
Q18Y | 1.19
Q18V | 1.8
Q18F | 1.01
Q18C | 1.52
Q18D | 2.73
Q18L | 1.67
Q18I | 1.89
Q18T | 2.16
Q18G | 2.02
Q18E | 2.13

Variant | protein stability index
Q18P | 1.4
Q18H | 1.48
Q18A | 1.32
Q18M | 2.02
P16H | 1.43
P16M | 1.5
P16D | 2.86
P16Y | 1.99
P16T | 1.29
P16N | 2.4
P16A | 1.81
P16L | 2.11
P16K | 2.26
P16S | 2.06
P16C | 2.52
P16E | 2.14
P16R | 2.41
P16Q | 2.5
P16F | 1.14
P16I | 1.52
C10H | 2.63
C10S | 2.24
C10V | 2.1
C10M | 2.08
C10L | 1.86

Variant | protein stability index
C10P | 2.31
C10Q | 2.92
C10T | 2.04
C10F | 1.68
C10G | 2.22
C10W | 1.81
C10I | 1.63
C10R | 2.35
N15K | 2.08
N15I | 1.37
N15S | 2.1
N15Y | 1.78
N15L | 1.39
N15D | 2.08
N15T | 3.74
N15A | 1.96
N15Q | 1.62
N15G | 1.26
N15C | 1.63
N15P | 2.8
N15M | 2.21
N15E | 2.27
N15R | 2.21
N15H | 2.75
N15F | 1.45

Variant | protein stability index
E11L | 2
E11F | 2.19
E11T | 1.98
E11C | 2.62
E11Y | 1.27
E11V | 1.56
E11I | 1.49
E11N | 1.76
E11D | 1.89
E11W | 1
E11R | 1.32
E11M | 2.03
E11H | 1.79
E11S | 1.22
E11P | 1.94
E11G | 1.86
E11K | 2.89
E11A | 1.32
